Measurements as given in patent US20140087995A1 (published 2014).
Numbered stars: 1 amine (or outer) side, 2 acyl side, 3 side chain; on linkers, the order of the positions; unused ones are H or OH. Bridge positions count the residues as written; N and C are the ends. Side chains are listed from the residue outwards. Ends that are not written are not given here. * marks the point of attachment. C20 diacid = O=C(O)CCCCCCCCCCCCCCCCCCC(=O)*; γGlu = O=C(O)[C@H](CCC(=O)[*:2])N[*:1]

T1: rat amylin receptor (rat calcitonin receptor + rat RAMP 3) (rat, UniProt P32214 25-516; Q9JJ73 23-147)
T1 construct: whole, on cells; Membranes prepared from transiently transfected BHK tk'ts 13 cells; also called rAmylin-R; rat amylin 3(a) receptor
T1 sequence (looked up) 1: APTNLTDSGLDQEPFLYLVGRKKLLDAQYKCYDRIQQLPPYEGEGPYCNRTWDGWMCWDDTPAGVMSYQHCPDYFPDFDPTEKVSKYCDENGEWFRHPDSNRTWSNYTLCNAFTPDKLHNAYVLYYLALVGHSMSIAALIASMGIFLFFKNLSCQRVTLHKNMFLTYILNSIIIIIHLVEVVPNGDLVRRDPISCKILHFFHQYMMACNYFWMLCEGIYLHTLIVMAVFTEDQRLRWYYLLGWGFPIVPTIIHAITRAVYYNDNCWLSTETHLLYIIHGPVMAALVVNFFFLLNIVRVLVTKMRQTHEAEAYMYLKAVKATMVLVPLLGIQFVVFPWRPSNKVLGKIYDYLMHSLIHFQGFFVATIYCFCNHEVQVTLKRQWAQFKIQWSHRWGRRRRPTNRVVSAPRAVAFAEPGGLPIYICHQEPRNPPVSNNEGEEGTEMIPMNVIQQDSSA
T1 sequence (looked up) 2: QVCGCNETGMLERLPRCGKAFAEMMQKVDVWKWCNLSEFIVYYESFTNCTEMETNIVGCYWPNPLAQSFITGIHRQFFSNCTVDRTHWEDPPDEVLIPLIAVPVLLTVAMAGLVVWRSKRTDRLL

T2: rat calcitonin receptor (rat, UniProt P32214 25-516)
T2 construct: whole, on cells; Membranes prepared from transiently transfected BHK tk'ts 13 cells; also called rCTR; rat calcitonin (a) receptor
T2 sequence (looked up): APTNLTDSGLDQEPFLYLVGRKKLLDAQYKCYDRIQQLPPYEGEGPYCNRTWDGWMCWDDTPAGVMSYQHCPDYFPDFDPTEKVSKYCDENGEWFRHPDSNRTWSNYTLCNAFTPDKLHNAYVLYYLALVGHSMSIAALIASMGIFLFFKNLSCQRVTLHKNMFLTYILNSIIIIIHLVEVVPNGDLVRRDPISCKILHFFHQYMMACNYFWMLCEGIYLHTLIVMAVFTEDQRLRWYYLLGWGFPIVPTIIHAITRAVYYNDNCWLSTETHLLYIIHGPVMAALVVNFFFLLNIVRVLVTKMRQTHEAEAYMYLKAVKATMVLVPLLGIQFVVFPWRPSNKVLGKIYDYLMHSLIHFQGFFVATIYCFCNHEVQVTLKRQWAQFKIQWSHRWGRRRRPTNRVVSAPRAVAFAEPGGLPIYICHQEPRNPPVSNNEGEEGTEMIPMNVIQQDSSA

T3: human calcitonin receptor (human, UniProt P30988 25-474)
T3 construct: whole, on cells; Membranes from stably transfected BHK cells; also called hCTR; hCT
T3 sequence (looked up): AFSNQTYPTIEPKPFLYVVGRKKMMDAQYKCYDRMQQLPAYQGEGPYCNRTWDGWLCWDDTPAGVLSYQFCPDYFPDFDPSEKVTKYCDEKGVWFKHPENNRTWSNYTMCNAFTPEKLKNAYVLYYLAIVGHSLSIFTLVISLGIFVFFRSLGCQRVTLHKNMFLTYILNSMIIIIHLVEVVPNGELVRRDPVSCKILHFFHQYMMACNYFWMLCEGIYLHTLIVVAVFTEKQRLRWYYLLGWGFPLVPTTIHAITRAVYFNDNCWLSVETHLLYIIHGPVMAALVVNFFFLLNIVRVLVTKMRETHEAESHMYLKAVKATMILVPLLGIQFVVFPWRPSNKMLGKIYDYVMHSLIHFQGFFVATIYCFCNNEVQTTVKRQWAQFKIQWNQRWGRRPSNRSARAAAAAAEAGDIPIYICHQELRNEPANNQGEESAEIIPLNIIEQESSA


Columns and labels:
[1] = target: T1, rat amylin receptor (rat calcitonin …); assay: SPA competition vs 125I-rat amylin, membranes (Assay VI)
rat calcitonin receptor [2] = target: T2, rat calcitonin receptor; assay: SPA competition vs 125I-calcitonin, membranes (Assay VIII)
rat calcitonin receptor [3] = target: T2, rat calcitonin receptor; assay: ratio of IC50 on rat calcitonin receptor to IC50 on rat amylin receptor
[4] = target: T3, human calcitonin receptor; assay: ratio of IC50 on human calcitonin receptor to IC50 on human amylin receptor
Summary of the method: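 Competition binding by SPA with cell membranes (35 ng/μL) and SPA beads in 50 mM Hepes pH 7.4 with 1 mM CaCl2, 5 mM MgCl2, 0.1% OA and 0.02% Tween20. Incubated 120 min at 25 °C with shaking, then counted.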

| IC50 [1] [nM] | IC50 (rat calcitonin receptor [2]) [nM] | Ratio rCT/rAmylin binding (rat calcitonin receptor [3]) | Ratio hCT/hAmylin binding [4] | Binder |
| --- | --- | --- | --- | --- |
| 0.125 | 9.05 | 72.4 | 24.8 | K([γGlu-C20 diacid])CNTATCATQRLAHFLRHSSPNFGAIPSSTPVGPNTY-NH2 (disulfide 2-7; N-terminus assumed; SMILES CC[C@H](C)[C@H](NC(=O)[C@H](C)NC(=O)CNC(=O)[C@H](Cc1ccccc1)NC(=O)[C@H](CC(N)=O)NC(=O)[C@@H]1CCCN1C(=O)[C@H](CO)NC(=O)[C@H](CO)NC(=O)[C@H](Cc1c[nH]cn1)NC(=O)[C@H](CCCNC(=N)N)NC(=O)[C@H](CC(C)C)NC(=O)[C@H](Cc1ccccc1)NC(=O)[C@H](Cc1c[nH]cn1)NC(=O)[C@H](C)NC(=O)[C@H](CC(C)C)NC(=O)[C@H](CCCNC(=N)N)NC(=O)[C@H](CCC(N)=O)NC(=O)[C@@H](NC(=O)[C@H](C)NC(=O)[C@@H]1CSSC[C@H](NC(=O)[C@@H](N)CCCCNC(=O)CC[C@H](NC(=O)CCCCCCCCCCCCCCCCCCC(=O)O)C(=O)O)C(=O)N[C@@H](CC(N)=O)C(=O)N[C@@H]([C@@H](C)O)C(=O)N[C@@H](C)C(=O)N[C@@H]([C@@H](C)O)C(=O)N1)[C@@H](C)O)C(=O)N1CCC[C@H]1C(=O)N[C@@H](CO)C(=O)N[C@@H](CO)C(=O)N[C@H](C(=O)N1CCC[C@H]1C(=O)N[C@H](C(=O)NCC(=O)N1CCC[C@H]1C(=O)N[C@@H](CC(N)=O)C(=O)N[C@H](C(=O)N[C@@H](Cc1ccc(O)cc1)C(N)=O)[C@@H](C)O)C(C)C)[C@@H](C)O) |
| 0.104 | 5.43 | 52.2 | 21.2 | K([γGlu-C20 diacid])CNTATCATQRLAEFLRHSSPNFGAIPSSTNVGPHTY-NH2 (disulfide 2-7) |
| 0.339 | 15.4 | 45.5 | 38.6 | K([γGlu-C20 diacid])CNTATCATQRLAEFLRHSSPNFGAIPSSTNVGPRTY-NH2 (disulfide 2-7; N-terminus assumed; SMILES CC[C@H](C)[C@H](NC(=O)[C@H](C)NC(=O)CNC(=O)[C@H](Cc1ccccc1)NC(=O)[C@H](CC(N)=O)NC(=O)[C@@H]1CCCN1C(=O)[C@H](CO)NC(=O)[C@H](CO)NC(=O)[C@H](Cc1c[nH]cn1)NC(=O)[C@H](CCCNC(=N)N)NC(=O)[C@H](CC(C)C)NC(=O)[C@H](Cc1ccccc1)NC(=O)[C@H](CCC(=O)O)NC(=O)[C@H](C)NC(=O)[C@H](CC(C)C)NC(=O)[C@H](CCCNC(=N)N)NC(=O)[C@H](CCC(N)=O)NC(=O)[C@@H](NC(=O)[C@H](C)NC(=O)[C@@H]1CSSC[C@H](NC(=O)[C@@H](N)CCCCNC(=O)CC[C@H](NC(=O)CCCCCCCCCCCCCCCCCCC(=O)O)C(=O)O)C(=O)N[C@@H](CC(N)=O)C(=O)N[C@@H]([C@@H](C)O)C(=O)N[C@@H](C)C(=O)N[C@@H]([C@@H](C)O)C(=O)N1)[C@@H](C)O)C(=O)N1CCC[C@H]1C(=O)N[C@@H](CO)C(=O)N[C@@H](CO)C(=O)N[C@H](C(=O)N[C@@H](CC(N)=O)C(=O)N[C@H](C(=O)NCC(=O)N1CCC[C@H]1C(=O)N[C@@H](CCCNC(=N)N)C(=O)N[C@H](C(=O)N[C@@H](Cc1ccc(O)cc1)C(N)=O)[C@@H](C)O)C(C)C)[C@@H](C)O) |

The remaining lines, values behind:

| Binder | IC50 [1] [nM] | IC50 (rat calcitonin receptor [2]) [nM] | Ratio rCT/rAmylin binding (rat calcitonin receptor [3]) | Ratio hCT/hAmylin binding [4] |
| --- | --- | --- | --- | --- |
| K([γGlu-C20 diacid])CNTATCATQRLAEFLRHSSPNFGAIPSSTNVGRETY-NH2 (disulfide 2-7; N-terminus assumed; SMILES CC[C@H](C)[C@H](NC(=O)[C@H](C)NC(=O)CNC(=O)[C@H](Cc1ccccc1)NC(=O)[C@H](CC(N)=O)NC(=O)[C@@H]1CCCN1C(=O)[C@H](CO)NC(=O)[C@H](CO)NC(=O)[C@H](Cc1c[nH]cn1)NC(=O)[C@H](CCCNC(=N)N)NC(=O)[C@H](CC(C)C)NC(=O)[C@H](Cc1ccccc1)NC(=O)[C@H](CCC(=O)O)NC(=O)[C@H](C)NC(=O)[C@H](CC(C)C)NC(=O)[C@H](CCCNC(=N)N)NC(=O)[C@H](CCC(N)=O)NC(=O)[C@@H](NC(=O)[C@H](C)NC(=O)[C@@H]1CSSC[C@H](NC(=O)[C@@H](N)CCCCNC(=O)CC[C@H](NC(=O)CCCCCCCCCCCCCCCCCCC(=O)O)C(=O)O)C(=O)N[C@@H](CC(N)=O)C(=O)N[C@@H]([C@@H](C)O)C(=O)N[C@@H](C)C(=O)N[C@@H]([C@@H](C)O)C(=O)N1)[C@@H](C)O)C(=O)N1CCC[C@H]1C(=O)N[C@@H](CO)C(=O)N[C@@H](CO)C(=O)N[C@H](C(=O)N[C@@H](CC(N)=O)C(=O)N[C@H](C(=O)NCC(=O)N[C@@H](CCCNC(=N)N)C(=O)N[C@@H](CCC(=O)O)C(=O)N[C@H](C(=O)N[C@@H](Cc1ccc(O)cc1)C(N)=O)[C@@H](C)O)C(C)C)[C@@H](C)O) | 1.06 | 86.1 | 81.1 | 28.5 |
| K([γGlu-C20 diacid])CNTATCATQRLAEFLRHSSPNFGAIPSSTNVGHETY-NH2 (disulfide 2-7; N-terminus assumed; SMILES CC[C@H](C)[C@H](NC(=O)[C@H](C)NC(=O)CNC(=O)[C@H](Cc1ccccc1)NC(=O)[C@H](CC(N)=O)NC(=O)[C@@H]1CCCN1C(=O)[C@H](CO)NC(=O)[C@H](CO)NC(=O)[C@H](Cc1c[nH]cn1)NC(=O)[C@H](CCCNC(=N)N)NC(=O)[C@H](CC(C)C)NC(=O)[C@H](Cc1ccccc1)NC(=O)[C@H](CCC(=O)O)NC(=O)[C@H](C)NC(=O)[C@H](CC(C)C)NC(=O)[C@H](CCCNC(=N)N)NC(=O)[C@H](CCC(N)=O)NC(=O)[C@@H](NC(=O)[C@H](C)NC(=O)[C@@H]1CSSC[C@H](NC(=O)[C@@H](N)CCCCNC(=O)CC[C@H](NC(=O)CCCCCCCCCCCCCCCCCCC(=O)O)C(=O)O)C(=O)N[C@@H](CC(N)=O)C(=O)N[C@@H]([C@@H](C)O)C(=O)N[C@@H](C)C(=O)N[C@@H]([C@@H](C)O)C(=O)N1)[C@@H](C)O)C(=O)N1CCC[C@H]1C(=O)N[C@@H](CO)C(=O)N[C@@H](CO)C(=O)N[C@H](C(=O)N[C@@H](CC(N)=O)C(=O)N[C@H](C(=O)NCC(=O)N[C@@H](Cc1c[nH]cn1)C(=O)N[C@@H](CCC(=O)O)C(=O)N[C@H](C(=O)N[C@@H](Cc1ccc(O)cc1)C(N)=O)[C@@H](C)O)C(C)C)[C@@H](C)O, also called compound 107) | 0.958 | 33.1 | 34.6 | 11.1 |
| K([γGlu-C20 diacid])CNTATCATQRLAEFLRHSSPNFGAIPSSTNVGSHTY-NH2 (disulfide 2-7; N-terminus assumed; SMILES CC[C@H](C)[C@H](NC(=O)[C@H](C)NC(=O)CNC(=O)[C@H](Cc1ccccc1)NC(=O)[C@H](CC(N)=O)NC(=O)[C@@H]1CCCN1C(=O)[C@H](CO)NC(=O)[C@H](CO)NC(=O)[C@H](Cc1c[nH]cn1)NC(=O)[C@H](CCCNC(=N)N)NC(=O)[C@H](CC(C)C)NC(=O)[C@H](Cc1ccccc1)NC(=O)[C@H](CCC(=O)O)NC(=O)[C@H](C)NC(=O)[C@H](CC(C)C)NC(=O)[C@H](CCCNC(=N)N)NC(=O)[C@H](CCC(N)=O)NC(=O)[C@@H](NC(=O)[C@H](C)NC(=O)[C@@H]1CSSC[C@H](NC(=O)[C@@H](N)CCCCNC(=O)CC[C@H](NC(=O)CCCCCCCCCCCCCCCCCCC(=O)O)C(=O)O)C(=O)N[C@@H](CC(N)=O)C(=O)N[C@@H]([C@@H](C)O)C(=O)N[C@@H](C)C(=O)N[C@@H]([C@@H](C)O)C(=O)N1)[C@@H](C)O)C(=O)N1CCC[C@H]1C(=O)N[C@@H](CO)C(=O)N[C@@H](CO)C(=O)N[C@H](C(=O)N[C@@H](CC(N)=O)C(=O)N[C@H](C(=O)NCC(=O)N[C@@H](CO)C(=O)N[C@@H](Cc1c[nH]cn1)C(=O)N[C@H](C(=O)N[C@@H](Cc1ccc(O)cc1)C(N)=O)[C@@H](C)O)C(C)C)[C@@H](C)O) | 1.16 | 26.3 | 22.7 | 26.4 |
